Experimental findings from IntAct's records for PubMed 39009827 are described below.

The labels stand for the following.
B1: BCL11 transcription factor A (Homo sapiens), Q9H165 (parent)
chain: MSRRKQGKPQHLSKREFSPEPLEAILTDDEPDHGPLGAPEGDHDLLTCGQCQMNFPLGDILIFIEHKRKQCNGSLCLEKAVDKPPSPSPIEMKKASNPVEVGIQVTPEDDDCLSTSSRGICPKQEHIADKLLHWRGLSSPRSAHGALIPTPGMSAEYAPQGICKDEPSSYTCTTCKQPFTSAWFLLQHAQNTHGLRIYLESEHGSPLTPRVGIPSGLGAECPSQPPLHGIHIADNNPFNLLRIPGSVSREASGLAEGRFPPTPPLFSPPPRHHLDPHRIERLGAEEMALATHHPSAFDRVLRLNPMAMEPPAMDFSRRLRELAGNTSSPPLSPGRPSPMQRLLQPFQPGSKPPFLATPPLPPLQSAPPPSQPPVKSKSCEFCGKTFKFQSNLVVHRRSHTGEKPYKCNLCDHACTQASKLKRHMKTHMHKSSPMTVKSDDGLSTASSPEPGTSDLVGSASSALKSVVAKFKSENDPNLIPENGDEEEEEDDEEEEEEEEEEEEELTESERVDYGFGLSLEAARHHENSSRGAVVGVGDESRALPDVMQGMVLSSMQHFSEAFHQVLGEKHKRGHLAEAEGHRDTCDEDSVAGESDRIDDGTVNGRGCSPGESASGGLSKKLLLGSPSSLSPFSKRIKLEKEFDLPPAAMPNTENVYSQWLAGYAASRQLKDPFLSFGDSRQSPFASSSEHSSENGSLRFSTPPGELDGGISGRSGTGSGGSTPHISGPGPGRPSSKEGRRSDTCEYCGKVFKNCSNLTVHRRSHTGERPYKCELCNYACAQSSKLTRHMKTHGQVGKDVYKCEICKMPFSVYSTLEKHMKKWHSDRVLNNDIKTE
B2: ATP-binding cassette sub-family C member 6 (Homo sapiens), O95255 (parent)
chain: MAAPAEPCAGQGVWNQTEPEPAATSLLSLCFLRTAGVWVPPMYLWVLGPIYLLFIHHHGRGYLRMSPLFKAKMVLGFALIVLCTSSVAVALWKIQQGTPEAPEFLIHPTVWLTTMSFAVFLIHTERKKGVQSSGVLFGYWLLCFVLPATNAAQQASGAGFQSDPVRHLSTYLCLSLVVAQFVLSCLADQPPFFPEDPQQSNPCPETGAAFPSKATFWWVSGLVWRGYRRPLRPKDLWSLGRENSSEELVSRLEKEWMRNRSAARRHNKAIAFKRKGGSGMKAPETEPFLRQEGSQWRPLLKAIWQVFHSTFLLGTLSLIISDVFRFTVPKLLSLFLEFIGDPKPPAWKGYLLAVLMFLSACLQTLFEQQNMYRLKVLQMRLRSAITGLVYRKVLALSSGSRKASAVGDVVNLVSVDVQRLTESVLYLNGLWLPLVWIVVCFVYLWQLLGPSALTAIAVFLSLLPLNFFISKKRNHHQEEQMRQKDSRARLTSSILRNSKTIKFHGWEGAFLDRVLGIRGQELGALRTSGLLFSVSLVSFQVSTFLVALVVFAVHTLVAENAMNAEKAFVTLTVLNILNKAQAFLPFSIHSLVQARVSFDRLVTFLCLEEVDPGVVDSSSSGSAAGKDCITIHSATFAWSQESPPCLHRINLTVPQGCLLAVVGPVGAGKSSLLSALLGELSKVEGFVSIEGAVAYVPQEAWVQNTSVVENVCFGQELDPPWLERVLEACALQPDVDSFPEGIHTSIGEQGMNLSGGQKQRLSLARAVYRKAAVYLLDDPLAALDAHVGQHVFNQVIGPGGLLQGTTRILVTHALHILPQADWIIVLANGAIAEMGSYQELLQRKGALMCLLDQARQPGDRGEGETEPGTSTKDPRGTSAGRRPELRRERSIKSVPEKDRTTSEAQTEVPLDDPDRAGWPAGKDSIQYGRVKATVHLAYLRAVGTPLCLYALFLFLCQQVASFCRGYWLSLWADDPAVGGQQTQAALRGGIFGLLGCLQAIGLFASMAAVLLGGARASRLLFQRLLWDVVRSPISFFERTPIGHLLNRFSKETDTVDVDIPDKLRSLLMYAFGLLEVSLVVAVATPLATVAILPLFLLYAGFQSLYVVSSCQLRRLESASYSSVCSHMAETFQGSTVVRAFRTQAPFVAQNNARVDESQRISFPRLVADRWLAANVELLGNGLVFAAATCAVLSKAHLSAGLVGFSVSAALQVTQTLQWVVRNWTDLENSIVSVERMQDYAWTPKEAPWRLPTCAAQPPWPQGGQIEFRDFGLRYRPELPLAVQGVSFKIHAGEKVGIVGRTGAGKSSLASGLLRLQEAAEGGIWIDGVPIAHVGLHTLRSRISIIPQDPILFPGSLRMNLDLLQEHSDEAIWAALETVQLKALVASLPGQLQYKCADRGEDLSVGQKQLLCLARALLRKTQILILDEATAAVDPGTELQMQAMLGSWFAQCTVLLIAHRLRSVMDCARVLVMDKGQVAESGSPAQLLAQKGLFYRLAQESGLV
B3: Myosin-9 (Homo sapiens), P35579 (parent)
chain: MAQQAADKYLYVDKNFINNPLAQADWAAKKLVWVPSDKSGFEPASLKEEVGEEAIVELVENGKKVKVNKDDIQKMNPPKFSKVEDMAELTCLNEASVLHNLKERYYSGLIYTYSGLFCVVINPYKNLPIYSEEIVEMYKGKKRHEMPPHIYAITDTAYRSMMQDREDQSILCTGESGAGKTENTKKVIQYLAYVASSHKSKKDQGELERQLLQANPILEAFGNAKTVKNDNSSRFGKFIRINFDVNGYIVGANIETYLLEKSRAIRQAKEERTFHIFYYLLSGAGEHLKTDLLLEPYNKYRFLSNGHVTIPGQQDKDMFQETMEAMRIMGIPEEEQMGLLRVISGVLQLGNIVFKKERNTDQASMPDNTAAQKVSHLLGINVTDFTRGILTPRIKVGRDYVQKAQTKEQADFAIEALAKATYERMFRWLVLRINKALDKTKRQGASFIGILDIAGFEIFDLNSFEQLCINYTNEKLQQLFNHTMFILEQEEYQREGIEWNFIDFGLDLQPCIDLIEKPAGPPGILALLDEECWFPKATDKSFVEKVMQEQGTHPKFQKPKQLKDKADFCIIHYAGKVDYKADEWLMKNMDPLNDNIATLLHQSSDKFVSELWKDVDRIIGLDQVAGMSETALPGAFKTRKGMFRTVGQLYKEQLAKLMATLRNTNPNFVRCIIPNHEKKAGKLDPHLVLDQLRCNGVLEGIRICRQGFPNRVVFQEFRQRYEILTPNSIPKGFMDGKQACVLMIKALELDSNLYRIGQSKVFFRAGVLAHLEEERDLKITDVIIGFQACCRGYLARKAFAKRQQQLTAMKVLQRNCAAYLKLRNWQWWRLFTKVKPLLQVSRQEEEMMAKEEELVKVREKQLAAENRLTEMETLQSQLMAEKLQLQEQLQAETELCAEAEELRARLTAKKQELEEICHDLEARVEEEEERCQHLQAEKKKMQQNIQELEEQLEEEESARQKLQLEKVTTEAKLKKLEEEQIILEDQNCKLAKEKKLLEDRIAEFTTNLTEEEEKSKSLAKLKNKHEAMITDLEERLRREEKQRQELEKTRRKLEGDSTDLSDQIAELQAQIAELKMQLAKKEEELQAALARVEEEAAQKNMALKKIRELESQISELQEDLESERASRNKAEKQKRDLGEELEALKTELEDTLDSTAAQQELRSKREQEVNILKKTLEEEAKTHEAQIQEMRQKHSQAVEELAEQLEQTKRVKANLEKAKQTLENERGELANEVKVLLQGKGDSEHKRKKVEAQLQELQVKFNEGERVRTELADKVTKLQVELDNVTGLLSQSDSKSSKLTKDFSALESQLQDTQELLQEENRQKLSLSTKLKQVEDEKNSFREQLEEEEEAKHNLEKQIATLHAQVADMKKKMEDSVGCLETAEEVKRKLQKDLEGLSQRHEEKVAAYDKLEKTKTRLQQELDDLLVDLDHQRQSACNLEKKQKKFDQLLAEEKTISAKYAEERDRAEAEAREKETKALSLARALEEAMEQKAELERLNKQFRTEMEDLMSSKDDVGKSVHELEKSKRALEQQVEEMKTQLEELEDELQATEDAKLRLEVNLQAMKAQFERDLQGRDEQSEEKKKQLVRQVREMEAELEDERKQRSMAVAARKKLEMDLKDLEAHIDSANKNRDEAIKQLRKLQAQMKDCMRELDDTRASREEILAQAKENEKKLKSMEAEMIQLQEELAAAERAKRQAQQERDELADEIANSSGKGALALEEKRRLEARIAQLEEELEEEQGNTELINDRLKKANLQIDQINTDLNLERSHAQKNENARQQLERQNKELKVKLQEMEGTVKSKYKASITALEAKIAQLEEQLDNETKERQAACKQVRRTEKKLKDVLLQVDDERRNAEQYKDQADKASTRLKQLKRQLEEAEEEAQRANASRRKLQRELEDATETADAMNREVSSLKNKLRRGDLPFVVPRRMARKGAGDGSDEEVDGKADGAEAKPAE
partner: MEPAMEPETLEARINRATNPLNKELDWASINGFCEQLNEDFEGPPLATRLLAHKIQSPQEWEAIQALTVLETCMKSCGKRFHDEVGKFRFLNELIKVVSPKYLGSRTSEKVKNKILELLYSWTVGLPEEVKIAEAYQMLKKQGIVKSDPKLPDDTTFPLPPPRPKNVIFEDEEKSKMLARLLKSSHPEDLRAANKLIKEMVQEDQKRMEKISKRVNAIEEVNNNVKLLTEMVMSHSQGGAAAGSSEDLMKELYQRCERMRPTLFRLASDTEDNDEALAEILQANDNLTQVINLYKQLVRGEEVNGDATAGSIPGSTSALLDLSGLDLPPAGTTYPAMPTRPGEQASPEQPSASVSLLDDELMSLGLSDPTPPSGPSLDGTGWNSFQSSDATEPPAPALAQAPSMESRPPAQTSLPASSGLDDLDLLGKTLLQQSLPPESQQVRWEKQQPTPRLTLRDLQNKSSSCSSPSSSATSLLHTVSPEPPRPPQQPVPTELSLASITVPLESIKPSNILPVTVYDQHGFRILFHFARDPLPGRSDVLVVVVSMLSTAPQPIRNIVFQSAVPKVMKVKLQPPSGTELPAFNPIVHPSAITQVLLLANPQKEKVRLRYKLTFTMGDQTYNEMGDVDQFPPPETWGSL

The variants in the first test derive from B1. Conditions: with clh1_human CLTC.
In the case of C48F, the “effect of a mutation on the interaction” value is on record as “increasing interaction strength”.

A further test covers variants of B2. Conditions: with mlp3b_human MAP1LC3B.
With L1226I, the “effect of a mutation on the interaction” value is reported as “decreasing interaction strength”.

In a further test the parent is B2. Conditions: with mlp3a_human MAP1LC3A.
Turning to L1226I, the “effect of a mutation on the interaction” value is “decreasing interaction strength”.

A further test covers variants of B3. Conditions: with gga1_human GGA1, Q9UJY5.
Turning to D1424H, the “effect of a mutation on the interaction” value is reported as “decreasing interaction strength”.
